According to patent US20110135647A1 (ONCOTHERAPY SCIENCE, published 2011):
Blank lines part the entries; values can stand above or below the binder they belong to.

Key:
[1] = target: T1, GST-tagged PP1α (GST-PP1α) (human, UniProt P62136 1-330); test: anti-HA immunoprecipitation from co-transfected COS-7 cells, anti-GST blot
T1 construct: also called GST-fused PP1α; not shown: glutathione S-transferase (GST) tag of the pCAGGS-nGST vector, N-terminal

[2] = target: T2, myc-tagged p97 (p97/VCP-myc-6×His) (human, UniProt P55072 1-806); test: co-immunoprecipitation with HA-tag antibody from co-transfected cells
T2 construct: Expressed in COS-7 cells; also called myc-p97; p97/VCP-myc-His; not shown: C-terminal myc-6×His tag of pcDNA3.1-myc-His

[3] = target: T3, HA-tagged A7322 (A7322-HA) (human, UniProt Q5TH69 1-2177); test: co-immunoprecipitation from co-transfected COS-7 cells, anti-FLAG IP / anti-HA blot and the reverse
T3 construct: Expressed in COS-7 cells for the ERα co-immunoprecipitation; not shown: HA tag
T3 sequence (Q5TH69 whole entry): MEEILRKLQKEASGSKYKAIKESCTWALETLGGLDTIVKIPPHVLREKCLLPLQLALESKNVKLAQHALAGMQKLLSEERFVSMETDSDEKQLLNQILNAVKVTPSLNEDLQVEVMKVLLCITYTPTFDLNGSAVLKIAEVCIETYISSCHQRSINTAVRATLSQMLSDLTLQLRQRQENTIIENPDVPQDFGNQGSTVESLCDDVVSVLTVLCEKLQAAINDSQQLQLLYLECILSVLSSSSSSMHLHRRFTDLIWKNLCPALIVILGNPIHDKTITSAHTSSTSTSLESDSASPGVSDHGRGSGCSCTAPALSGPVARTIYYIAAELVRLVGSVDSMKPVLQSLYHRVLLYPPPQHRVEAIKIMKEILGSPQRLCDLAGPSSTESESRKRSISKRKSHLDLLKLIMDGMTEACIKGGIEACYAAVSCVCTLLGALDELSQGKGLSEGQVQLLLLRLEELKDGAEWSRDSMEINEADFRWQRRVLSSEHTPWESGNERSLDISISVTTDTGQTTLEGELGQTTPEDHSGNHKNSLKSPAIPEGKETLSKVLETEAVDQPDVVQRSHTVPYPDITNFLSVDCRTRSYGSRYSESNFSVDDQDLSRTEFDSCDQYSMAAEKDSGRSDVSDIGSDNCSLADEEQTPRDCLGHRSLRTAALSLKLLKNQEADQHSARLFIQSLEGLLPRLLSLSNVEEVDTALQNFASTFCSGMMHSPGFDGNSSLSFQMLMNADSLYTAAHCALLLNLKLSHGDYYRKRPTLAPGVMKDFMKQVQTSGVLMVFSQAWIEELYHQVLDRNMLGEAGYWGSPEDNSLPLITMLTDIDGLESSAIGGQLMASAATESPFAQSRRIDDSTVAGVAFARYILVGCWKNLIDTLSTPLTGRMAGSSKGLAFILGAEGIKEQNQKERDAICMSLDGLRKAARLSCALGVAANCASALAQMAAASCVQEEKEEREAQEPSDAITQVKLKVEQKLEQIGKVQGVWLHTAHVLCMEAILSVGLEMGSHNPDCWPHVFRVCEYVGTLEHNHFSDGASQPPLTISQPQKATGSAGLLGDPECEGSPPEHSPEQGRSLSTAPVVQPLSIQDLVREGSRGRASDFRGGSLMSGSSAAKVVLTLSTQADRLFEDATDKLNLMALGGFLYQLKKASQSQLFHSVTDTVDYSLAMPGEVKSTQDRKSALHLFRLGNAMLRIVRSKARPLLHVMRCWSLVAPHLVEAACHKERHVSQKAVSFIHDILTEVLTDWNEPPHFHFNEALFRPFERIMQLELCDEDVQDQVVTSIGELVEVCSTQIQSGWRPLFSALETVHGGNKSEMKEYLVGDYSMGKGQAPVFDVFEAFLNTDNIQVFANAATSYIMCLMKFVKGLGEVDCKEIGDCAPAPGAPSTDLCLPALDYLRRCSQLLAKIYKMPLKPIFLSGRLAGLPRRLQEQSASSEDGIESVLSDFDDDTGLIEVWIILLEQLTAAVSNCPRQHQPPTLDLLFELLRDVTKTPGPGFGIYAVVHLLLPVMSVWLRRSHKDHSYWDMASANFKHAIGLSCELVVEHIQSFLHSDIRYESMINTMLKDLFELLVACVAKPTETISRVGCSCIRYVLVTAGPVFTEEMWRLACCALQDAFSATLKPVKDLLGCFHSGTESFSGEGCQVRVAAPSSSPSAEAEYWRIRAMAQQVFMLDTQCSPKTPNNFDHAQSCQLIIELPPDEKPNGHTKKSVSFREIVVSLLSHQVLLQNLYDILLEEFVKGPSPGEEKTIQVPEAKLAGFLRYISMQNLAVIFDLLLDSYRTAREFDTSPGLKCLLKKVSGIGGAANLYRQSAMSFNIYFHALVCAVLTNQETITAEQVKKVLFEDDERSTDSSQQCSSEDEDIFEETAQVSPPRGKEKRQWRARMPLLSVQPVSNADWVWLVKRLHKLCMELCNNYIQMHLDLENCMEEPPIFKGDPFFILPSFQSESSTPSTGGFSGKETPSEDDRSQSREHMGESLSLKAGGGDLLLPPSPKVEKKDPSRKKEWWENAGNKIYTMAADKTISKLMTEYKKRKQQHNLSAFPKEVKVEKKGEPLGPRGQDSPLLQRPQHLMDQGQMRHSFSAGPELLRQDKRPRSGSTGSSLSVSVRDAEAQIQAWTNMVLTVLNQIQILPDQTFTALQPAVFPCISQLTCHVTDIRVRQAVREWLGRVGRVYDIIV

T1 sequence (P62136 whole entry, the tested form may be a part): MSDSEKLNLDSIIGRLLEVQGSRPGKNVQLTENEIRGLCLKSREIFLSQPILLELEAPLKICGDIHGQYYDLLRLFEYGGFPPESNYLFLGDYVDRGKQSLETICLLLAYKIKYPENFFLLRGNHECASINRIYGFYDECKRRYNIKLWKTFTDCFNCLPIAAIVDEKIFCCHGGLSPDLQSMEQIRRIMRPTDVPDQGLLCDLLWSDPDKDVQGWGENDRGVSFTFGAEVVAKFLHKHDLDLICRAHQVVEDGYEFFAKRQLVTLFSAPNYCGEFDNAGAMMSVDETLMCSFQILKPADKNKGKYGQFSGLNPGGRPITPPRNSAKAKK
T2 sequence (P55072 whole entry): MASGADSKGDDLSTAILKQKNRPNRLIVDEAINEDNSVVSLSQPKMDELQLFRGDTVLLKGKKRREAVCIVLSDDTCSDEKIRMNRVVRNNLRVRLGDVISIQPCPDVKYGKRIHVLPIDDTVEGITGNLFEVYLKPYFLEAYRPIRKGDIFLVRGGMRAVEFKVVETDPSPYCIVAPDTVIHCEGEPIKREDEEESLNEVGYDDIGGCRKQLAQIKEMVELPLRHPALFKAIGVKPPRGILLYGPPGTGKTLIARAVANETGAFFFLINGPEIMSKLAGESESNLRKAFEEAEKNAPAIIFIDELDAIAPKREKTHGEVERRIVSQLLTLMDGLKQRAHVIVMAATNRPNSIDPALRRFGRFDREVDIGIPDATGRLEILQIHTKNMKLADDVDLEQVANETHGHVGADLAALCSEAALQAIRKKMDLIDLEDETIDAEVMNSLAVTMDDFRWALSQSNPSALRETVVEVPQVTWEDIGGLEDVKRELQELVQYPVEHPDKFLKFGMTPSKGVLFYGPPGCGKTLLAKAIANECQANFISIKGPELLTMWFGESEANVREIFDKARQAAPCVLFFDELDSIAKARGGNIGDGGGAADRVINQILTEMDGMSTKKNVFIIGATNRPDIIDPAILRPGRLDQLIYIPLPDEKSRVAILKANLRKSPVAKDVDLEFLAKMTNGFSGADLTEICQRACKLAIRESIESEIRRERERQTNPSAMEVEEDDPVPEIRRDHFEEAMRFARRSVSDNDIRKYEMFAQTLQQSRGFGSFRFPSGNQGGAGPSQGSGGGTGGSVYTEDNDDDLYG

binding result [1]: binds
binding result [2]: no binding
B1: HA-tagged PBK/TOPK (HA-PBK/TOPK), wild type (enzyme)
chain: MEGISNFKTPSKLSEKKKSVLCSTPTINIPASPFMQKLGFGTGVNVYLMKRSPRGLSHSPWAVKKINPICNDHYRSVYQKRLMDEAKILKSLHHPNIVGYRAFTEANDGSLCLAMEYGGEKSLNDLIEERYKASQDPFPAAIILKVALNMARGLKYLHQEKKLLHGDIKSSNVVIKGDFETIKICDVGVSLPLDENMTVTDPEACYIGTEPWKPKEAVEENGVITDKADIFAFGLTLWEMMTLSIPHINLSNDDDDEDKTFDESDFDDEAYYAALGTRPPINMEELDESYQKVIELFSVCTNEDPKDRPSAAHIVEALETDV
notes: Expressed in COS-7 or T47D cells; also called HA-tagged TOPK; WT; not shown: N-terminal HA tag (pCAGGSnHA)

binding result [3]: no binding
B2: FLAG-tagged ERα (ERα-FLAG) (receptor, UniProt P03372 1-595, looked up)
chain: MTMTLHTKASGMALLHQIQGNELEPLNRPQLKIPLERPLGEVYLDSSKPAVYNYPEGAAYEFNAAAAANAQVYGQTGLPYGPGSEAAAFGSNGLGGFPPLNSVSPSPLMLLHPPPQLSPFLQPHGQQVPYYLENEPSGYTVREAGPPAFYRPNSDNRRQGGRERLASTNDKGSMAMESAKETRYCAVCNDYASGYHYGVWSCEGCKAFFKRSIQGHNDYMCPATNQCTIDKNRRKSCQACRLRKCYEVGMMKGGIRKDRRGGRMLKHKRQRDDGEGRGEVGSAGDMRAANLWPSPLMIKRSKKNSLALSLTADQMVSALLDAEPPILYSEYDPTRPFSEASMMGLLTNLADRELVHMINWAKRVPGFVDLTLHDQVHLLECAWLEILMIGLVWRSMEHPGKLLFAPNLLLDRNQGKCVEGMVEIFDMLLATSSRFRMMNLQGEEFVCLKSIILLNSGVYTFLSSTLKSLEEKDHIHRVLDKITDTLIHLMAKAGLTLQQQHQRLAQLLLILSHIRHMSNKGMEHLYSMKCKNVVPLYDLLLEMLDAHRLHAPTSRGGASVEETDQSHLATAGSTSSHSLQKYYITGEAEGFPATV
notes: Expressed in COS-7 cells; also called FLAG-ERα; estrogen receptor α; not shown: FLAG tag
